Several values for one entry are separate records, joined by “and”; a condition that tells them apart may be missing. Identical values can stand only once.
T1: human Ly6E, N-terminal gD-tagged, stably expressed on PC3 cells (human, UniProt Q16553 21-101)
T1 construct: GPI-linked protein on cells; also called hu Ly6E; human Ly6E transfected PC3 cells; not shown: N-terminal gD tag of the retroviral vector
T1 sequence: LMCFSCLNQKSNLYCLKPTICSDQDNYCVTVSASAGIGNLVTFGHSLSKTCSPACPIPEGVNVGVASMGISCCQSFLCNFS


Target: T1, human Ly6E, N-terminal gD-tagged, …
Assay: cell-based competitive binding on human Ly6E PC3 cells; competitor mouse 9B12
Description: Cell-based Ly6E competitive binding assay—Cultured human Ly6E transfected PC3 cells were harvested with 5 mM EDTA containing PBS. Cells were washed with PBS and added onto a 384-well high binding plate (Meso Scale Discovery Technology (MSD); Gaithersburg, Md.). The plate was kept at room temperature for 1 hr to allow cells to adhere to the plate as described (See Lu, Y., Wong, W. L. & Meng, Y. G. A high throughput electrochemiluminescent cell-binding assay for therapeutic anti-CD20 antibody selection. Journal of Immunological Methods 314, 74-79 (2006)). The plate with cells was blocked with fetal bovine serum containing PBS for 1 hr and then cooled on ice. Serially diluted antibody variant samples were mixed with equal volume of fixed concentration of mouse 9B12 Ab. The mixtures were added onto the plates and incubated at 4° C. with gentle shaking for 1 hr.
The plate was then washed with cold PBS and an anti-mouse IgG Fc specific Ab (Jackson ImmunoReserach; West Grove, Pa.) labeled with sulfo-ruthenium tag was added to the plate as the detection reagent. The plate was incubated at 4° C. with gentle shaking for 1 hr. After incubation the plate was washed again, and MSD read buffer (MSD; Gaithersburg, Md.) was added onto the wells. The plate was read with a MSD SectorÒ imager 6000. The data was graphed and analyzed using KaleidaGraph software (Synergy Software; Reading, Pa.) to determine IC₅₀ values.

Binder	IC50
humanized 9B12 variant v2 (antibody, V domains shown, IgG. k1 graft / VH2 graft + 24 + 49; Residue changes derived against v12) VH: EVQLVESGPALVKPTQTLTLTCTVSGFSLTGYSVNWIRQPPGKALEWLGMIWGDGSTDYNSALKSRLTISKDTSKNQVVLTMTNMDPVDTATYYCARDYYFNYASWFAYWGQGTLVTVSS VL: DIQMTQSPSSLSASVGDRVTITCSASQGISNYLNWYQQKPGKAPKLLIYYTSNLHSGVPSRFSGSGSGTDFTLTISSLQPEDFATYYCQQYSELPWTFGQGTKVEIK	28 nM and 37 nM
humanized 9B12 variant v10 (antibody, V domains shown, IgG. k1 graft 43+44 / VH3 graft + 71 + 78; Residue changes derived) VH: EVQLVESGGGLVQPGGSLRLSCAASGFSLTGYSVNWVRQAPGKGLEWVGMIWGDGSTDYNSALKSRFTISKDNSKNTVYLQMNSLRAEDTAVYYCARDYYFNYASWFAYWGQGTLVTVSS VL: DIQMTQSPSSLSASVGDRVTITCSASQGISNYLNWYQQKPGKTVKLLIYYTSNLHSGVPSRFSGSGSGTDFTLTISSLQPEDFATYYCQQYSELPWTFGQGTKVEIK	61 nM
humanized 9B12 variant v7 (antibody, V domains shown, IgG. k1 graft 43+44 / VH2 graft + 24 + 49; Residue change derived) VH: EVQLVESGPALVKPTQTLTLTCTVSGFSLTGYSVNWIRQPPGKALEWLGMIWGDGSTDYNSALKSRLTISKDTSKNQVVLTMTNMDPVDTATYYCARDYYFNYASWFAYWGQGTLVTVSS VL: DIQMTQSPSSLSASVGDRVTITCSASQGISNYLNWYQQKPGKTVKLLIYYTSNLHSGVPSRFSGSGSGTDFTLTISSLQPEDFATYYCQQYSELPWTFGQGTKVEIK	24 nM and 36 nM
humanized 9B12 variant v23 (antibody, V domains shown, IgG. k1 graft + 71 / VH2 graft + 24 + 49 + 73 + 76; Residue changes derived) VH: EVQLVESGPALVKPTQTLTLTCTVSGFSLTGYSVNWIRQPPGKALEWLGMIWGDGSTDYNSALKSRLTISKDNSKSQVVLTMTNMDPVDTATYYCARDYYFNYASWFAYWGQGTLVTVSS VL: DIQMTQSPSSLSASVGDRVTITCSASQGISNYLNWYQQKPGKAPKLLIYYTSNLHSGVPSRFSGSGSGTDYTLTISSLQPEDFATYYCQQYSELPWTFGQGTKVEIK	54 nM
humanized 9B12 variant v16 (antibody, V domains shown, IgG. k1 graft 43+44+71 / VH2 graft + 24 + 37 + 49; Residue change derived) VH: EVQLVESGPALVKPTQTLTLTCTVSGFSLTGYSVNWVRQPPGKALEWLGMIWGDGSTDYNSALKSRLTISKDTSKNQVVLTMTNMDPVDTATYYCARDYYFNYASWFAYWGQGTLVTVSS VL: DIQMTQSPSSLSASVGDRVTITCSASQGISNYLNWYQQKPGKTVKLLIYYTSNLHSGVPSRFSGSGSGTDYTLTISSLQPEDFATYYCQQYSELPWTFGQGTKVEIK	27 nM
humanized 9B12 variant v9 (antibody, V domains shown, IgG. k1 graft 43+44 / VH3 graft + 24; Residue changes derived) VH: EVQLVESGGGLVQPGGSLRLSCAVSGFSLTGYSVNWVRQAPGKGLEWVGMIWGDGSTDYNSALKSRFTISRDNSKNTLYLQMNSLRAEDTAVYYCARDYYFNYASWFAYWGQGTLVTVSS VL: DIQMTQSPSSLSASVGDRVTITCSASQGISNYLNWYQQKPGKTVKLLIYYTSNLHSGVPSRFSGSGSGTDFTLTISSLQPEDFATYYCQQYSELPWTFGQGTKVEIK	34 nM and 44 nM
humanized 9B12 variant v15 (antibody, V domains shown, IgG. k1 graft 43+44+71 / VH3 graft + 71 + 78; Residue changes derived) VH: EVQLVESGGGLVQPGGSLRLSCAASGFSLTGYSVNWVRQAPGKGLEWVGMIWGDGSTDYNSALKSRFTISKDNSKNTVYLQMNSLRAEDTAVYYCARDYYFNYASWFAYWGQGTLVTVSS VL: DIQMTQSPSSLSASVGDRVTITCSASQGISNYLNWYQQKPGKTVKLLIYYTSNLHSGVPSRFSGSGSGTDYTLTISSLQPEDFATYYCQQYSELPWTFGQGTKVEIK	42 nM and 52 nM
humanized 9B12 variant v21 (antibody, V domains shown, IgG. k1 graft + 71 / VH2 graft + 24 + 37 + 49; Residue changes derived) VH: EVQLVESGPALVKPTQTLTLTCTVSGFSLTGYSVNWVRQPPGKALEWLGMIWGDGSTDYNSALKSRLTISKDTSKNQVVLTMTNMDPVDTATYYCARDYYFNYASWFAYWGQGTLVTVSS VL: DIQMTQSPSSLSASVGDRVTITCSASQGISNYLNWYQQKPGKAPKLLIYYTSNLHSGVPSRFSGSGSGTDYTLTISSLQPEDFATYYCQQYSELPWTFGQGTKVEIK	82 nM
humanized 9B12 variant v5 (antibody, V domains shown, IgG. k1 graft / VH3 graft + 71 + 78; Residue changes derived) VH: EVQLVESGGGLVQPGGSLRLSCAASGFSLTGYSVNWVRQAPGKGLEWVGMIWGDGSTDYNSALKSRFTISKDNSKNTVYLQMNSLRAEDTAVYYCARDYYFNYASWFAYWGQGTLVTVSS VL: DIQMTQSPSSLSASVGDRVTITCSASQGISNYLNWYQQKPGKAPKLLIYYTSNLHSGVPSRFSGSGSGTDFTLTISSLQPEDFATYYCQQYSELPWTFGQGTKVEIK	70 nM
humanized 9B12 variant v14 (antibody, V domains shown, IgG. k1 graft 43+44+71 / VH3 graft + 24; Residue change derived) VH: EVQLVESGGGLVQPGGSLRLSCAVSGFSLTGYSVNWVRQAPGKGLEWVGMIWGDGSTDYNSALKSRFTISRDNSKNTLYLQMNSLRAEDTAVYYCARDYYFNYASWFAYWGQGTLVTVSS VL: DIQMTQSPSSLSASVGDRVTITCSASQGISNYLNWYQQKPGKTVKLLIYYTSNLHSGVPSRFSGSGSGTDYTLTISSLQPEDFATYYCQQYSELPWTFGQGTKVEIK	39 nM and 56 nM
humanized 9B12 variant v22 (antibody, V domains shown, IgG. k1 graft + 71 / VH2 graft + 24 + 49 + 73; Residue changes derived) VH: EVQLVESGPALVKPTQTLTLTCTVSGFSLTGYSVNWIRQPPGKALEWLGMIWGDGSTDYNSALKSRLTISKDNSKNQVVLTMTNMDPVDTATYYCARDYYFNYASWFAYWGQGTLVTVSS VL: DIQMTQSPSSLSASVGDRVTITCSASQGISNYLNWYQQKPGKAPKLLIYYTSNLHSGVPSRFSGSGSGTDYTLTISSLQPEDFATYYCQQYSELPWTFGQGTKVEIK	59 nM
humanized 9B12 variant v4 (antibody, V domains shown, IgG. k1 graft / VH3 graft + 24) VH: EVQLVESGGGLVQPGGSLRLSCAVSGFSLTGYSVNWVRQAPGKGLEWVGMIWGDGSTDYNSALKSRFTISRDNSKNTLYLQMNSLRAEDTAVYYCARDYYFNYASWFAYWGQGTLVTVSS VL: DIQMTQSPSSLSASVGDRVTITCSASQGISNYLNWYQQKPGKAPKLLIYYTSNLHSGVPSRFSGSGSGTDFTLTISSLQPEDFATYYCQQYSELPWTFGQGTKVEIK	98 nM and 70 nM
humanized 9B12 variant v19 (antibody, V domains shown, IgG. k1 graft 43+44+71 / VH2 graft + 24 + 37 + 49 + 73 + 76; Residue changes derived) VH: EVQLVESGPALVKPTQTLTLTCTVSGFSLTGYSVNWVRQPPGKALEWLGMIWGDGSTDYNSALKSRLTISKDNSKSQVVLTMTNMDPVDTATYYCARDYYFNYASWFAYWGQGTLVTVSS VL: DIQMTQSPSSLSASVGDRVTITCSASQGISNYLNWYQQKPGKTVKLLIYYTSNLHSGVPSRFSGSGSGTDYTLTISSLQPEDFATYYCQQYSELPWTFGQGTKVEIK	28 nM
humanized 9B12 variant v24 (antibody, V domains shown, IgG. k1 graft + 71 / VH2 graft + 24 + 37 + 49 + 73 + 76; Residue changes derived) VH: EVQLVESGPALVKPTQTLTLTCTVSGFSLTGYSVNWVRQPPGKALEWLGMIWGDGSTDYNSALKSRLTISKDNSKSQVVLTMTNMDPVDTATYYCARDYYFNYASWFAYWGQGTLVTVSS VL: DIQMTQSPSSLSASVGDRVTITCSASQGISNYLNWYQQKPGKAPKLLIYYTSNLHSGVPSRFSGSGSGTDYTLTISSLQPEDFATYYCQQYSELPWTFGQGTKVEIK	53 nM
humanized 9B12 variant v17 (antibody, V domains shown, IgG. k1 graft 43+44+71 / VH2 graft + 24 + 49 + 73; Residue change derived) VH: EVQLVESGPALVKPTQTLTLTCTVSGFSLTGYSVNWIRQPPGKALEWLGMIWGDGSTDYNSALKSRLTISKDNSKNQVVLTMTNMDPVDTATYYCARDYYFNYASWFAYWGQGTLVTVSS VL: DIQMTQSPSSLSASVGDRVTITCSASQGISNYLNWYQQKPGKTVKLLIYYTSNLHSGVPSRFSGSGSGTDYTLTISSLQPEDFATYYCQQYSELPWTFGQGTKVEIK	29 nM
humanized 9B12 variant v18 (antibody, V domains shown, IgG. k1 graft 43+44+71 / VH2 graft + 24 + 49 + 73 + 76; Residue changes derived) VH: EVQLVESGPALVKPTQTLTLTCTVSGFSLTGYSVNWIRQPPGKALEWLGMIWGDGSTDYNSALKSRLTISKDNSKSQVVLTMTNMDPVDTATYYCARDYYFNYASWFAYWGQGTLVTVSS VL: DIQMTQSPSSLSASVGDRVTITCSASQGISNYLNWYQQKPGKTVKLLIYYTSNLHSGVPSRFSGSGSGTDYTLTISSLQPEDFATYYCQQYSELPWTFGQGTKVEIK	22 nM
